fluorescein = fluorescein label
Columns and labels:
[1] = target: fluorescein-labeled AID peptide, fluorescein-…-COOH; experiment: fluorescence polarization
[2] = target: fluorescein-labeled AID peptide, fluorescein-…-COOH; experiment: fluorescence polarization, equilibrium isotherm titration
[3] = target: fluorescein-labeled AID peptide, fluorescein-…-COOH; experiment: fluorescence polarization, β protein titrated onto 0.5 nM fluorescein-labeled AID peptide
[4] = target: CaV1.2 (α1C) subunit expressed in Xenopus laevis oocytes by mRNA injection; experiment: cell-based or functional assay
[5] = target: T1, full-length VDCC β2a mutant M246 changed to alanine (rabbit, UniProt P54288-2 1-606); experiment: fluorescence polarization
T1 construct: mature

[6] = target: T2, full-length VDCC β2a mutant L392 changed to alanine (rabbit, UniProt P54288-2 1-606); experiment: fluorescence polarization
T2 construct: mature

| Kd [1] | Kd [2] | Kd [3] | Kd [5] | Kd [6] | Molecule | Current amplitude (A), I at 20 mV [4] | Current amplitude (A), I at 30 mV [4] | Steady-state activation, V1/2 (mV) [4] | Steady-state activation, k (mV) [4] |
| --- | --- | --- | --- | --- | --- | --- | --- | --- | --- |
| 0.026 µM | 0.006 to 0.015 µM | 0.0161 µM |  |  | full-length VDCC β2a subunit (rabbit, recombinant, histidine tag removed by TEV protease) (from UniProt P54288 44-632) |  |  |  |  |
|  |  |  |  |  | β2a core protein as injected into oocytes (P122R) (from UniProt P54288 25-422) | -0.87 | -0.7 | 6.84 mV | 8.43 mV |
|  | 0.006 to 0.015 µM | 0.0066 µM |  |  | VDCC β2a linkerless core (domain I plus domain II, removable linker core after TEV digestion) (from UniProt P54288 51-172; P54288 230-449) |  |  |  |  |
|  |  |  |  |  | full-length rat VDCC β3 subunit protein (recombinant, tag removed) (from UniProt P54287 1-484) |  |  | 10 mV | 10.6 mV |
|  |  |  |  |  | β3 subunit expressed in oocytes by mRNA injection | -0.56 | -0.48 | 10.7 mV | 9.08 mV |
|  |  |  |  |  | full-length β2a protein as injected into oocytes (P122R) (from UniProt P54288 1-606) | -0.71 | -0.49 | 3.68 mV | 8.48 mV |
|  |  |  |  |  | β2a domain I + domain II prepared by proteolysis of full length protein and subsequent purification (injected) (from UniProt P54288 25-146; P54288 204-423) | -0.44 | -0.34 | 3.24 mV | 9.49 mV |
|  |  |  |  |  | β2a domain I protein as injected into oocytes (P122R) (from UniProt P54288 25-146) | -0.16 | -0.18 | 24 mV | 12.2 mV |
|  |  |  |  |  | β3 core protein (from UniProt P54287 21-370) | -0.45 | -0.41 | 10.7 mV | 10.1 mV |
|  |  |  | 1.7 µM | 0.34 µM | fluorescein-GGQQLEEDLRGYNSWITQGE-OH (also called labeled peptide; WT) [fluorescein-labeled AID peptide, fluorescein-GGQQLEEDLRGYNSWITQGE-COOH] |  |  |  |  |
